Substrate: NC(=O)CC[C@H](NC(=O)[C@@H](N)CCC(N)=O)C(=O)O
Assay: Spectrophotometric QC activity assay (glutamate dehydrogenase coupled), human QC expressed in E. coli
Format: biochemical
Conditions: other: substrate of human QC expressed in Escherichia coli cell, mean ± SD (n = 2), 50 mM Tris-HCl, pH 8.0
Protocol: For the spectrophotometric method, the 500 μl assay solutions consisted of 15 units glutamate dehydrogenase, 12 mM α-ketoglutarate, 0.6 mM NADH (a reduced form of NAD (nicotinamide adenine dinucleotide)) and varying concentrations of synthetic substrate in 50 mM Tris-HCl, pH 8.0. Reactions were started by the addition of QC (0.04 to 2.5 μg), and the activity was monitored by recording the decrease of NADH absorbance at 340 nm.
The Km and kcat values determined for the recombinant protein of the invention were very similar to the human QC expressed in Drosophila S2 cells, as evident in Table 1.

B1: recombinant human QC (Homo sapiens) (protein)
chain: ASAWPEEKNYHQPAILNSSALRQIAEGTSISEMWQNDLQPLLIERYPGSPGSYAARQHIMQRIQRLQADWVLEIDTFLSQTPYGYRSFSNIISTLNPTAKRHLVLACHYDSKYFSHWNNRVFVGATDSAVPCAMMLELARALDKKLLSLKTVSDSKPDLSLQLIFFDGEEAFLHWSPQDSLYGSRHLAAKMASTPHPPGARGTSQLHGMDLLVLLDLIGAPNPTFPNFFPNSARWFERLQAIEHELHELGLLKDHSLEGRYFQNYSYGGVIQDDHIPFLRRGVPVLHLIPSPFPEVWHTMDDNEENLDESTIDNLNKILQVFVLEYLHL
notes: corresponding to the coding region of human QC (Ala33-Leu361) was re-amplified and inserted into a pET-43.1a expression vector; Nus fusion (pET-43.1a construct) or thioredoxin fusion (pET-32a construct) (N, cleaved yes); (His)6 (pET-43.1a construct: N- and C-terminal sites; pET-32a construct: 5'-end, upstream of the Factor Xa site); made in house; host or cells: E. coli BL21 (DE3)
Km: 600 ± 100 µM | kcat: 8.6 ± 0.5 s⁻¹ | kcat/Km: 13700 ± 500 M⁻¹ s⁻¹
